Measured values reported in publication PMC8428749.

Molecular target: human C4b binding protein (C4BP) (human) (UniProt P04003)
Assay: BLI; Octet RED96; purified C4BP immobilised on amine-reactive (AR2G) sensor; P5 loop peptides 1.25-50 µM in PBS; 30°C; 1:1 binding fit

UniProt P04003, sequence (P04003 49-597, chain 1 of 2): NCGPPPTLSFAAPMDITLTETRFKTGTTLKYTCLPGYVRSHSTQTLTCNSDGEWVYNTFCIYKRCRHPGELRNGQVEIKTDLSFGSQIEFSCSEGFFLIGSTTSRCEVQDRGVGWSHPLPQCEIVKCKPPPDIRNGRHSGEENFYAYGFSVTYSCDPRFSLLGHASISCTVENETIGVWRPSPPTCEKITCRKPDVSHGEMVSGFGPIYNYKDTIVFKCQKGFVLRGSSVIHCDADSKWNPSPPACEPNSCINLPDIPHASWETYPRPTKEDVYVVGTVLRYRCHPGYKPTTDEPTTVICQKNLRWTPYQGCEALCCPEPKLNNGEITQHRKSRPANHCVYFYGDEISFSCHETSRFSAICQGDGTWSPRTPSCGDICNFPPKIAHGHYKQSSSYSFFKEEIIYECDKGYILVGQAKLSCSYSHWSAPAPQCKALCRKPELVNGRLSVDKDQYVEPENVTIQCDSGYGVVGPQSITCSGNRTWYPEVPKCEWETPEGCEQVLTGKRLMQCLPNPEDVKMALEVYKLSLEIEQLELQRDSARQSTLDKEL
UniProt P04003, sequence (P20851 18-252, chain 2 of 2, further chain): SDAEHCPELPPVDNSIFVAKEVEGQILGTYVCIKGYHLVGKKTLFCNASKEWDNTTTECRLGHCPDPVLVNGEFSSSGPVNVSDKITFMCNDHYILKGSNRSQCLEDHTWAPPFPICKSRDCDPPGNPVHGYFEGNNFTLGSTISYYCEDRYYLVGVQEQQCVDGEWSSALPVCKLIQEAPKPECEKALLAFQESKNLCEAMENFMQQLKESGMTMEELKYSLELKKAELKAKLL

Substance | Kd
synthetic peptide of outer surface loop 2 of P5 from NTHi KR271 | 73 µM
synthetic peptide of outer surface loop 2 of P5 from NTHi 3655 | 10 µM
